The values that follow come from paper PMC3305447, “A Peptidoglycan Fragment Triggers β-lactam Resistance in Bacillus licheniformis” (PLoS Pathogens, 2012).

Assay [1] addresses T1, MecI (Staphylococcus aureus, UniProt P68261).
T1 construct: full-length with C-terminal His6 (pET22b), recombinant, purified; homodimer; 15N-labelled for NMR
The assay can be described thus: NMR titration, 1H-15N SOFAST-HMQC chemical shifts. In kind it is binding.

In assay [2] the target is T1, MecI. The assay can be described thus: agarose-gel EMSA, dissociation of repressor-operator DNA complex. It is filed as binding.
Target sequence in this assay (P68261 1-122): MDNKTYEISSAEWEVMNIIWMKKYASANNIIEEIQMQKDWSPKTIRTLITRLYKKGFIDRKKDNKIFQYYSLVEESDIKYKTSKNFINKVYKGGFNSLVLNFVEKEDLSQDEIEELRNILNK
Assay [3] addresses Bacillus licheniformis 749/I BlaI repressor (BlaI-His) (Bacillus licheniformis 749/I) (UniProt P06555).
Assay [4] concerns the target Staphylococcus aureus MecI repressor (MecI-His) (Staphylococcus aureus ATCC 43300) (UniProt P68261). The assay can be described thus: native gel or EMSA.
The target is the same in assay [5].

Chain of Staphylococcus aureus MecI repressor (MecI-His) (Staphylococcus aureus ATCC 43300) (P68261 whole entry): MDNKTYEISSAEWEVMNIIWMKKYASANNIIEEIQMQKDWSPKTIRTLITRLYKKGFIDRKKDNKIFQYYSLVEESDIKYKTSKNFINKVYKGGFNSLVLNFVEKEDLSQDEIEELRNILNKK
Chain of Bacillus licheniformis 749/I BlaI repressor (BlaI-His) (Bacillus licheniformis 749/I) (P06555 whole entry): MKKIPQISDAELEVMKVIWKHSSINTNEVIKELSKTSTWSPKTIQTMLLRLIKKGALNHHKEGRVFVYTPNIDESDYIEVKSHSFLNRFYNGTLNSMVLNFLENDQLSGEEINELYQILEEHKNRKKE

Take `NCCCC[C@H](NC(=O)CC[C@@H](N)C(=O)O)C(=O)O` [dipeptide 2, γ-D-Glu-L-Lys]: the Kd at MecI [1] is 8000 ± 2000 µM. On MecI [2], this molecule yielded a concentration for half-maximal inhibition (IC50) of around 2000 µM.
The molecule γ-D-Glu-m-A2pm dipeptide yielded a concentration of dipeptide allowing the displacement of 50% of bound BlaI from its nucleic operator (agarose gel EMSA titration, 10 to 50 nmol dipeptide in 20 µl) in assay [3] of 2 mM.
γ-D-Glu-L-Lys dipeptide yielded a Kd in assay [4] of 2000 µM. For the same molecule, in assay [5], the concentration of dipeptide allowing the displacement of 50% of bound MecI from its nucleic operator (agarose gel EMSA titration, 10 to 50 nmol dipeptide in 20 µl) stood at 2 mM.
